Reference: article doi:10.1101/2020.12.31.424729 (bioRxiv, 2020)

Molecular target: SARS-CoV-2 Spike ectodomain trimer stabilized with 2 proline mutations (S-2P) (SARS-CoV-2, Wuhan-Hu-1, stabilised)
Assay: cryo-EM structure

Binder	stoichiometry N
DH1047 Fab (Fab, V domains shown) VH: QVQLVQSGAEVKKPGASVQVSCQASANTFTNHYIHWVRQAPGQGLEWMGIIYPTGGNTIYAQGFQGRVTMTRDTSLNTIYLELSSLRSEDTAVYYCARDVRVDDSWSGYDLLSGGTYFDYWGQGTLVTVSS VL: not shown	3 Fabs per S-2P trimer
DH1041 Fab (Fab, V domains shown) VH: EVQLVESGGGLVQPGGSLRLSCAASGVTFSSYWMSWVRQAPGKGLEWVANIRQDGSEKYSVDSVKGRFTISRDNAKNSLYLQMNSLRAEDTAVYYCARARRADNSGYYGFHFDCWGQGTLVTVSS VL: QSVLTQPPSVSGAPGQRVTISCTGSSSNIGAGYDVHWYQQLPGTAPKLLIYGNNNRPSGVPDRFSDSKSGTSASLAITRLQAEDEADYYCQSYDSSLSGWVFGGGTKLTVL	3 Fabs per S-2P trimer
